Measured values as given in PMC12527912.
One block for each substance: values may come before it.

Legend:
[1] = target: lamin A peptide LA 572-588;histone octamer (H2A, H2B, H3, H4) (;Xenopus laevis) (UniProt P02545+P84233+P62799+P06897+P02281); assay: competition (TIRF); conditions: EMSA: 150 mM NaCl, 20 mM HEPES pH 7.5, 1 mM DTT, 4 C, 1 h, 6% native PAGE; TIRF buffer not in the material
[2] = target: lamin A tail LA 430-585;histone octamer (H2A, H2B, H3, H4) (Xenopus laevis) (UniProt P84233+P62799+P06897+P02281); assay: EMSA; conditions: 0.05 uM Alexa 488 nucleosome; LA 3.1-400 uM; EMSA: 150 mM NaCl, 20 mM HEPES pH 7.5, 1 mM DTT, 4 C, 1 h, 6% native PAGE; TIRF buffer not in the material
[3] = target: H4K20C nucleosome labelled with Alexa Fluor 488 (Xenopus laevis); assay: TIRF microscopy on micropatterned nucleosomes, competition; as a6 with 1 µM CF660R-labelled LA 430–585 and 0 to 1500 µM unlabelled peptide LA 572–588; ratio of lamin to nucleosome fluorescence fitted with a four-parameter dose–response Hill–Langmuir equation
[4] = target: lamin A 430–585 C570A, labelled with CF660R (UniProt P02545); assay: fluorescence correlation spectroscopy (FCS); 500 pM CF660R-labelled LA 430–585 C570A, diffusion time against H2A–H2B concentration; 20 mM HEPES pH 8, 150 mM NaCl, 0.01% Tween20, 2 mM ascorbic acid and methyl viologen; one-to-one binding model
[5] = target: H4K20C nucleosome labelled with Alexa Fluor 488 (Xenopus laevis); assay: native gel or EMSA; 4 °C; 150 mM NaCl, 20 mM HEPES pH 7.5, 1 mM DTT; 0.05 µM Alexa 488-labeled nucleosomes with 3.1 µM to 400 µM lamin fragment, 1 h; 6% native PAGE

Substance: 197 bp 601 nucleosome
IC50 [1]: 5 µM | Kd [2]: 48 µM

EC50 [3]: 5 µM
Substance: synthetic peptide comprising amino acids 572–588 of lamin A

Kd [4]: 12 µM
Substance: H2A–H2B heterodimer (Xenopus laevis) (from UniProt P06897 11-120; P02281 1-126) (complex)

Kd [5]: 48 µM
Substance: lamin A 430–585, from the 6xHis-SUMO plasmid, tag cleaved (from UniProt P02545 430-585) (domain or fragment)
